Measured values: paper PMC9712689 (Communications Biology, 2022)

Experiments:
Conditions in all cases: both partners purified
[1] = biological target: T1, PBP1a (P. aeruginosa PAO1, UniProt Q07806 27-822); assay: MST
[2] = biological target: T1, PBP1a; assay: ITC
[3] = biological target: T2, SltB1 (P. aeruginosa PAO1, UniProt Q9HX24 1-340); assay: ITC
T2 sequence (looked up): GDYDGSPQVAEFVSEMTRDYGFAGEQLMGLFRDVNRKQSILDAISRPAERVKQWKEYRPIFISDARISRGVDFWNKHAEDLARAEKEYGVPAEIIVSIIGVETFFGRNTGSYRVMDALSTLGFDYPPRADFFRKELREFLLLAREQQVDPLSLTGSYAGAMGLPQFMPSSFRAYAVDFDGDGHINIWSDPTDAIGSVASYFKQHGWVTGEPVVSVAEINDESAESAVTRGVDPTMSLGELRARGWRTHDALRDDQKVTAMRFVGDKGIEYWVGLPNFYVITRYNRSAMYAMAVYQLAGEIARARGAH

[4] = biological target: T3, PilA (P. aeruginosa PAO1, UniProt P04739); assay: ITC
T3 construct: source: E. coli, purified (Ni-NTA or Strep-Tactin)
T3 sequence: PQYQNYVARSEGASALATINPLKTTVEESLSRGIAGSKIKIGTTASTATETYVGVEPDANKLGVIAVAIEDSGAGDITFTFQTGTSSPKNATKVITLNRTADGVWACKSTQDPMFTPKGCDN

[5] = biological target: T4, PA2854 (P. aeruginosa PAO1, UniProt Q9HZZ0); assay: SPR
T4 construct: source: E. coli, purified (Ni-NTA or Strep-Tactin)
T4 sequence: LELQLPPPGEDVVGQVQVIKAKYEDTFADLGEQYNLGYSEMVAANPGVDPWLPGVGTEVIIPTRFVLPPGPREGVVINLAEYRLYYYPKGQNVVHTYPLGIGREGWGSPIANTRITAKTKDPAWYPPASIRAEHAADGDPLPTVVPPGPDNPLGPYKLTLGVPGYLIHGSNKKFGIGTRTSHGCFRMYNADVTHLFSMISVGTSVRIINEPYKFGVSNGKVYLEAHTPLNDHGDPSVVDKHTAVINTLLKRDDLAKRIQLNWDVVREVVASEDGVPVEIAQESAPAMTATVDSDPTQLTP

[6] = biological target: T5, PilO (P. aeruginosa PAO1, UniProt G3XD51); assay: SPR
T5 construct: source: E. coli, purified (Ni-NTA or Strep-Tactin)
T5 sequence: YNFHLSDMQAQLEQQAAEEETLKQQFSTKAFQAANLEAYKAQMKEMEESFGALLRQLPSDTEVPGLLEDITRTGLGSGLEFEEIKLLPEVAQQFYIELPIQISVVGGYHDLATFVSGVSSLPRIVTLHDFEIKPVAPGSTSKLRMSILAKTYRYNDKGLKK

[7] = biological target: T1, PBP1a; assay: SPR; RlpA-Δ81 or RlpA-SPOR amine-coupled to its own CM4 chip, partner as analyte; 25 °C; 10 mM HEPES pH 7.4, 150 mM NaCl, 3 mM EDTA, 0.005% P20; alternate fitting model for PBP1a on RlpA-SPOR
[8] = biological target: T6, MltD (P. aeruginosa PAO1, UniProt Q9I2T2 1-534); assay: as above
T6 sequence (looked up): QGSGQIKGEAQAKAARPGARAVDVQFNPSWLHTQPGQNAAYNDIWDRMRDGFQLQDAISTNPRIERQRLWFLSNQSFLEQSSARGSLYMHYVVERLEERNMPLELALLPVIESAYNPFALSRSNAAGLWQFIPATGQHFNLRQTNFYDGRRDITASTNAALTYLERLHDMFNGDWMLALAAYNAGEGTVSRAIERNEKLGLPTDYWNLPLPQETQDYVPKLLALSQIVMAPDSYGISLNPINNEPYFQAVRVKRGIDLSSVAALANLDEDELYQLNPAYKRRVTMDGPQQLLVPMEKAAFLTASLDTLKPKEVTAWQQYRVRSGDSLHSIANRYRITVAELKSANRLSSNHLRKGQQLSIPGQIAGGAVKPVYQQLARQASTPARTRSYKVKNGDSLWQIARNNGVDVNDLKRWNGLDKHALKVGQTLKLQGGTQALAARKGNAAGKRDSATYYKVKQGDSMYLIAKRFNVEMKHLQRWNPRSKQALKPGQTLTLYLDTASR

[9] = biological target: T7, TypA (P. aeruginosa PAO1, UniProt Q9HU67 1-605); assay: as above
T7 sequence (looked up): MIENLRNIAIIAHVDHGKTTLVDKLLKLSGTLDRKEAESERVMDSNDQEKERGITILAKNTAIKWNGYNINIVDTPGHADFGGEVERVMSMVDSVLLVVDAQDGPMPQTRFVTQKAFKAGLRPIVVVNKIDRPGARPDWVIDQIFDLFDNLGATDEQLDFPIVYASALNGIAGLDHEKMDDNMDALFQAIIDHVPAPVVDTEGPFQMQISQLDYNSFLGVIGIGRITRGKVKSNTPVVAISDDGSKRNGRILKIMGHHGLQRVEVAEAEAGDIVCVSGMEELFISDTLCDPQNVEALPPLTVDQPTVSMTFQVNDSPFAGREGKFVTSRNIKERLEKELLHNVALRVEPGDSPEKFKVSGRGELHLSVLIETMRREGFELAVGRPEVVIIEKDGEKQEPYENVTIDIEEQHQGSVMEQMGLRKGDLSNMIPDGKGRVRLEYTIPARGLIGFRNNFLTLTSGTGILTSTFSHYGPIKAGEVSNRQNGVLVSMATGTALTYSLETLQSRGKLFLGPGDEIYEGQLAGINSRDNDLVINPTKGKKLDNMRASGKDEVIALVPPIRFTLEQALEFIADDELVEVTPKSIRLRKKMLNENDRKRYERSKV

[10] = biological target: T8, MltF2 (P. aeruginosa PAO1, UniProt Q9HZY1 1-476); assay: as above
T8 sequence (looked up): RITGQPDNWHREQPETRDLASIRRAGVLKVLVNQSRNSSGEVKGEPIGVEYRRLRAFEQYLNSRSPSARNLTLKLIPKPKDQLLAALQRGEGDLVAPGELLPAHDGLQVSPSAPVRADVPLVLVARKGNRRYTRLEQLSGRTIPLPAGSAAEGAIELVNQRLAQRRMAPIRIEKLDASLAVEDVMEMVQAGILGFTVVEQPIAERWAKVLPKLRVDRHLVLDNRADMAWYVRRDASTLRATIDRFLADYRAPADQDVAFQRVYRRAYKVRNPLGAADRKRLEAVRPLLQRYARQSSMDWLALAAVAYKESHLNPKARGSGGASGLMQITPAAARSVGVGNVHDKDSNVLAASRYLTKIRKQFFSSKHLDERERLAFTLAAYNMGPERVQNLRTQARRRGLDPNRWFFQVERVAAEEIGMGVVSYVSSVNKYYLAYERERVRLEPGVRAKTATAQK

T1 sequence (Q07806 27-822): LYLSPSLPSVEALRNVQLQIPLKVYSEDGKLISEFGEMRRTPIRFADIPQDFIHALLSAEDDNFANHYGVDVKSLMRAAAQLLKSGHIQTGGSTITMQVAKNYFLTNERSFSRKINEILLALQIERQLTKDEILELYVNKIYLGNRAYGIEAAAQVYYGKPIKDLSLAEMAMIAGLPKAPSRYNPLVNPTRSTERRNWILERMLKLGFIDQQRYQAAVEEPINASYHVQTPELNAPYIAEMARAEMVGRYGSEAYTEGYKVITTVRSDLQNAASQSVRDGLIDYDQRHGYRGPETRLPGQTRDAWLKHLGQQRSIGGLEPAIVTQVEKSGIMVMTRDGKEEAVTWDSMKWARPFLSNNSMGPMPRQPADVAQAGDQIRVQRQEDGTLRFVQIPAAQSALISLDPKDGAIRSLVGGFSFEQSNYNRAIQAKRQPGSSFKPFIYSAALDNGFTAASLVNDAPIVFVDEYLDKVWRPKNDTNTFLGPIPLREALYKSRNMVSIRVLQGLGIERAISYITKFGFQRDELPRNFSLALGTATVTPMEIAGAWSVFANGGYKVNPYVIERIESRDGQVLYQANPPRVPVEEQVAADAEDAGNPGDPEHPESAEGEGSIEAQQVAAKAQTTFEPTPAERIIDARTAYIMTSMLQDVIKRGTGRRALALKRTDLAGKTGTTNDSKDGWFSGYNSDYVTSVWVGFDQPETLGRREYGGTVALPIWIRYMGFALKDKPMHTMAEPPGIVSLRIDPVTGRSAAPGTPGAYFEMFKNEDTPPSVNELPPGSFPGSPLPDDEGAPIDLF

B1: RlpA-Δ32·MltF2 complex (MST) (complex)
chain 1: PQQPARQAGISGPGDYSRPHRDGAPWWDVDVSRIPDAVPMPHNGSVKANPYTVLGKTYYPMNDARAYRMVGTASWYGTKFHGQATANGETYDLYGMTAAHKTLPLPSYVRVTNLDNGKSVIVRVNDRGPFYSDRVIDLSFAAAKKLGYAETGTARVKVEGIDPVQWWAQRGRPAPMVLAQPKQAVAQAAPAAAQTQAVAMAQPIETYTPPPAQHAAAVLPVQIDSKKNASLPADGLYLQVGAFANPDAAELLKAKLSGVTAAPVFISSVVRNQQILHRVRLGPIGSADEVSRTQDSIRVANLGQPTLVRPD
chain 2: T8 sequence (looked up)
modifications: amine reactive RED-NHS dye
Kd [1]: 45 nM

B2: RlpA-SPOR (domain or fragment, P. aeruginosa PAO1, UniProt Q9X6V6 264-342, looked up)
chain: ADGLYLQVGAFANPDAAELLKAKLSGVTAAPVFISSVVRNQQILHRVRLGPIGSADEVSRTQDSIRVANLGQPTLVRPD
Kd [2]: 104 nM | stoichiometry N [2]: 0.26 | Kd [3]: 9.8 µM | Kd [4]: 73 nM | stoichiometry N [4]: 1 | Kd [5]: 1410 nM | koff [5]: 0.00038 s⁻¹ | kon [5]: 270 M⁻¹ s⁻¹ | Kd [6]: 5.76 µM | koff [6]: 0.00438 s⁻¹ | kon [6]: 760 M⁻¹ s⁻¹ | Kd [7]: 190 nM | koff [7]: 0.00049 s⁻¹ | kon [7]: 2600 M⁻¹ s⁻¹ | Kd [8]: 200 nM | koff [8]: 0.0027 s⁻¹ | kon [8]: 13800 M⁻¹ s⁻¹ | Kd [9]: 4.25 µM | koff [9]: 0.00034 s⁻¹ | kon [9]: 80 M⁻¹ s⁻¹ | Kd [10]: 98 nM | koff [10]: 0.00077 s⁻¹ | kon [10]: 7900 M⁻¹ s⁻¹
